Residue numbers refer to the chain shown, from its start.

Here are results for 14 molecules from patent US20150197559A1 (University of California, published 2015).

The target in test [1] is T1, BoNT/A1 (Hall hyper) (Clostridium botulinum, UniProt P0DPI0 2-1296). Kind of test: flow cytometry, yeast-displayed scFv, soluble toxin.
The target in test [2] is T1, BoNT/A1 (Hall hyper). Described as above. This is another data set of the same source.
The target of test [3] is T1, BoNT/A1 (Hall hyper). Briefly: flow cytometry, yeast-displayed scFv, soluble BoNT/A1.
Test [4] deals with T1, BoNT/A1 (Hall hyper).
Test [5] deals with T1, BoNT/A1 (Hall hyper). Kind of test: KinExA flow fluorimetry, IgG in solution. Background: In KinExA the mixture passes briefly over coated beads that capture the unbound partner.
Test [6] deals with T2, BoNT/B1 (Clostridium botulinum, UniProt P10844 2-1291).
T2 sequence: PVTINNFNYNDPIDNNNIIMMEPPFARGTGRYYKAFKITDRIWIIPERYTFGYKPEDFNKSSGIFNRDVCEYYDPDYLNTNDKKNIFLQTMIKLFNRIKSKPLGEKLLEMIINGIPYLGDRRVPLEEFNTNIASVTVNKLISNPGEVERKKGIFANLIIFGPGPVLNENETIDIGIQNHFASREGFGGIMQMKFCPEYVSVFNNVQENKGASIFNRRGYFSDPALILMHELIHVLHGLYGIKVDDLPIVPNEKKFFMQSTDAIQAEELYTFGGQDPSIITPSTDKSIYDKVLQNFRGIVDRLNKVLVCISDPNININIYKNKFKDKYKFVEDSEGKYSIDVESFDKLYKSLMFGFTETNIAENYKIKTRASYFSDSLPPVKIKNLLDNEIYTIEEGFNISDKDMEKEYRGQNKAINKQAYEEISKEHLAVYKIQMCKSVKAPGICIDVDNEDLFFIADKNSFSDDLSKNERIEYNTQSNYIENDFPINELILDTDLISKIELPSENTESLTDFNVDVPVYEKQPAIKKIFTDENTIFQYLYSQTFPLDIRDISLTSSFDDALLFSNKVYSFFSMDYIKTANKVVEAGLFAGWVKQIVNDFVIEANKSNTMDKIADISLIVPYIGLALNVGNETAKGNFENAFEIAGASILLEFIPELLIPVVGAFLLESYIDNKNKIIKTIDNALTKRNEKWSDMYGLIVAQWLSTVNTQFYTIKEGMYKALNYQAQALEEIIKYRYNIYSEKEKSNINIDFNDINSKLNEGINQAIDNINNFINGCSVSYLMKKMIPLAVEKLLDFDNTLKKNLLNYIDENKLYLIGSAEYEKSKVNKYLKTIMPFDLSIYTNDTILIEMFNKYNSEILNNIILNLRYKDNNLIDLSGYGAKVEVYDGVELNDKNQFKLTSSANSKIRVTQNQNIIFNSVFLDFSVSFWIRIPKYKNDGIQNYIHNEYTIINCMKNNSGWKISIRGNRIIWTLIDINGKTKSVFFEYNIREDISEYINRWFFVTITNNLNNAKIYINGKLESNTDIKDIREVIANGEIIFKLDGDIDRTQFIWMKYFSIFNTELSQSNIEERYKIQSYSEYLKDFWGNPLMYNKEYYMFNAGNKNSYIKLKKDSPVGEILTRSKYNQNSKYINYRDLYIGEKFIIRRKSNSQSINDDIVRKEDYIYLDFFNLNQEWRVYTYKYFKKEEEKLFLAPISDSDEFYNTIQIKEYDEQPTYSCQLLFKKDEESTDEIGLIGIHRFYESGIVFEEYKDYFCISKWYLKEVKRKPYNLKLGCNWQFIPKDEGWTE
Kind of test: flow cytometry, yeast-displayed Fab, soluble toxin. For orientation: In flow cytometry, cells or beads pass a laser one at a time.

The target in test [7] is T2, BoNT/B1. Briefly: yeast-displayed Fab against parental B11 scFv, flow cytometry.
Test [8] concerns the target T2, BoNT/B1.
Test [9] concerns the target T2, BoNT/B1. Briefly: KinExA flow fluorimetry, IgG in solution.
For test [10], the target named is T2, BoNT/B1. Kind of test: flow cytometry, yeast-displayed Fab against yeast-displayed scFv.
The target of a further test is BoNT/B2 (Clostridium botulinum). Briefly: flow cytometry, yeast-displayed scFv, soluble toxin.
Another test concerns the target BoNT/B3 (Clostridium botulinum). The description is as above.
Another test has as its target BoNT/B4 (Clostridium botulinum). Described as above.
For test [11], the target named is T2, BoNT/B1. Described as above.
The target of test [12] is T2, BoNT/B1. Kind of test: flow cytometry, yeast-displayed parental scFv.
The target in test [13] is T2, BoNT/B1. Kind of test: flow cytometry, yeast-displayed scFv, soluble toxin. The source holds these as a separate data set.
The target of test [14] is T1, BoNT/A1 (Hall hyper). Kind of test: flow cytometry, yeast-displayed Fab, soluble toxin.
Test [15] addresses T1, BoNT/A1 (Hall hyper). Briefly: flow cytometry, yeast-displayed Fab against yeast-displayed scFv.
In test [16] the target is T2, BoNT/B1. Briefly: flow cytometry, yeast-displayed Fab, soluble toxin. The source holds these as a separate data set.
Test [17] concerns the target T2, BoNT/B1. Kind of test: yeast-displayed Fab against parental B6 scFv, flow cytometry.

B1: ING2 scFv (scFv, V domains shown)
VH: QVQLVQSGAEVKKPGSSVKVSCKASGDTFNRNAIAWVRQAPGQGLEWMGRIIPNLRTTHYAQKFQGRVAITADKHTNTVFMELSSLRSEDTAVYYCARDPYYYSYMDVWGKGTTVTVSS
VL: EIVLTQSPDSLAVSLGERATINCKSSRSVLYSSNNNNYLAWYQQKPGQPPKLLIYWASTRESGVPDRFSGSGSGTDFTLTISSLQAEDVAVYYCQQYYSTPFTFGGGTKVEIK
Take B1: the results for the Kd in the test with BoNT/A1 (Hall hyper) [1], in the test with BoNT/A1 (Hall hyper) [2] and with BoNT/A1 (Hall hyper) [3] were 0.24 nM, 0.238 nM and 0.25 nM, respectively.

B2: ING2 IgG (antibody, V domains shown)
VH: B1 VH
VL: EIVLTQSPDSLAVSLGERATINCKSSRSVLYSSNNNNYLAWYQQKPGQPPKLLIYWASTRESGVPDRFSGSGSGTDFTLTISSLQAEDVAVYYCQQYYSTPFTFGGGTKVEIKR
Regarding B2, in the test with BoNT/A1 (Hall hyper) [4], the “fold increase in affinity, IgG against parental scFv” value lay within 1.5 to 25 fold. In the test with BoNT/A1 (Hall hyper) [5], this molecule yielded a Kd of 0.00957 nM.

B3: B11E8 Fab (Fab, V domains shown)
VH: EVQLVQSGGGVVQPGRSLRLSCAASGFIFRTYGMHWVRQAPGKGLEWVAFVSSDGNNKFYSDSVKGRFTISRDNAKNTLYLQMNSLETEDTAMYYCAKDRYPIDCSGGSCFSYGMDVWGQGTTVTVSS
VL: EIVLTQSPATLSVSPGERATLSCRASQSVSKFLAWYQQKRGQAPRLLIYGASTRATGIPARFSGSGSGTEFALTISSLQSEDFADYYCQQYDNWPITFGQGTRLEIKR
B3 showed a Kd with BoNT/B1 [6] of 0.081 nM. Also, the “KD wild type/KD matured” value with BoNT/B1 [7] amounted to 32 fold.

B4: B11E8 IgG (antibody, V domains shown)
VH: B3 VH
VL: B3 VL
For B4, in the test with BoNT/B1 [8], the “fold increase in affinity, IgG against yeast displayed Fab” value amounted to 4.85 fold. The Kd with BoNT/B1 [9] stood at 0.00659 nM.

B5: B11 Fab (Fab, V domains shown)
VH: B3 VH with E1Q, V5L, G8A, S71P, M93V
VL: DIVMTQSPSTLSASVGDRVTVTCRASQSINSWLAWYQQKPGKAPKLLIYEASSLESGVPSRFSGSGSGTEFTLTISSLQPDDFATYYCQQYDSYWLTFGGGTKVEIKR
With B5, in the test with BoNT/B1 [10], the “fold lower affinity than the scFv” value was 2.5 fold.

B6: 2B29 scFv (scFv, V domains shown)
VH: QVQLQESGPGLVKPSETLSLTCSVSGGSINSGTYYWTWIRQHPGKGLEWIGYIYYSGTTYYNPSLKSRVSMSVDTSKNLFSLKMNSVTAADTALYYCARGNPQYDTSGSYTGLYFDFWGQGTLVTVSS
VL: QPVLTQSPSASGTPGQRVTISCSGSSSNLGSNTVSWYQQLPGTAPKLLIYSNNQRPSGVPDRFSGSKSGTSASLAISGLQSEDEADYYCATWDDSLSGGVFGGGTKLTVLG
With B6, the Kd in the test with BoNT/B2 was determined as 1.02 nM; with BoNT/B3, 1.61 nM; with BoNT/B4, 1.29 nM; in the test with BoNT/B1 [11] it was 1.11 nM.

B7: B11 scFv (scFv)
scFv: QVQLLQSAGGVVQPGRSLRLSCAASGFIFRTYGMHWVRQAPGKGLEWVAFVSSDGNNKFYSDSVKGRFTIPRDNAKNTLYLQMNSLETEDTAVYYCAKDRYPIDCSGGSCFSYGMDVWGQGTTVTVSSGGGGSGGGGSGGGGSDIVMTQSPSTLSASVGDRVTVTCRASQSINSWLAWYQQKPGKAPKLLIYEASSLESGVPSRFSGSGSGTEFTLTISSLQPDDFATYYCQQYDSYWLTFGGGTKVEIK
B7: the dissociation constant (Kd) with BoNT/B1 [12] and with BoNT/B1 [13] was 2.62 nM throughout.

B8: 1B11 scFv (scFv)
chain: B7 scFv
Consider B8, for which the results for the dissociation constant (Kd) with BoNT/B3 and in the test with BoNT/B1 [11] were 4.43 nM and 2.6 nM, respectively.

B9: B6 scFv (scFv)
scFv: QVQLVQSGAEVKKPGESLVISCKASGDKDTFTSFWIAWVRQMPGKGLEWMGIIYAGDSDTRYSPSFQGHVNISVDRSTNTAYLQWSSLKASDTAMYYCARHDSRYKYFYFGMDVWGQGTTVTVSSGGGGSGGGGSGGGGSDVVMTQSPSSLSASVGDRITITCQAGQDISNFLNWYQQKPGKAPKLLIRDASNLETGVPSRFSGGGSGTHFTFTISSLHPEDIATYFCQQYDNLPYTFGQGTKLEIK
For the molecule B9, the Kd with BoNT/B1 [12] and in the test with BoNT/B1 [13] was 2.71 nM throughout.

B10: 2B27 scFv (scFv, V domains shown)
VH: EVQLQESGPGLVKPSETLSVTCAVSGGSISSSNYSWAWIRQPPGKGLEWIGTMYYSGSTHYHPSLKSRVTISVDTSKSQLSLKLSSVTAADTAVYYCARRRLLGPSPYYFDYWGQGTLVTVSS
VL: QSVVTQPPSVSGAPGQRVTISCSGSSSNIGAGYDVHWYQQLPGTAPKLLIYGNNNRPSGVPDRFSGSKSGTSASLAITGLQAEDEADYYCQSYDSSLSAYVFGTGTKLTVLG
For the molecule B10, the equilibrium dissociation constant (Kd) with BoNT/B2 was found to be 0.56 nM; in the test with BoNT/B3 it was 2.32 nM; in the test with BoNT/B4, 0.77 nM; with BoNT/B1 [11], 1.9 nM.

B11: ING1 IgG (antibody, V domains shown)
VH: QVQLQQSGGGLVQPGGSLRLSCAASGFTFSNYAMTWVRQAPGKGLEWVSSISVGGSDTYYADSVKGRFTVSRDNSKNTLLLQMNSLRAEDTAVYYCAKVRTKYCSSLSCFAGFDSWGQGTRVTVSS
VL: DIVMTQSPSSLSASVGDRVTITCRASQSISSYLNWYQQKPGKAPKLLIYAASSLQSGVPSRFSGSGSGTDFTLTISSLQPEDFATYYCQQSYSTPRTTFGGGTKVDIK
As for B11, in the test with BoNT/A1 (Hall hyper) [5], the dissociation constant (Kd) is 0.314 nM.

B12: ING1 Fab (Fab, V domains shown)
VH: B11 VH
VL: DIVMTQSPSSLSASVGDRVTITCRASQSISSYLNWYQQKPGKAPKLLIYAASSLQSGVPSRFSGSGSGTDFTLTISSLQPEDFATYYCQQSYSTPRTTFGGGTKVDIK
Consider B12, for which the equilibrium dissociation constant (Kd) with BoNT/A1 (Hall hyper) [14] amounted to 20.6 nM. The “fold lower affinity than the scFv” value in the test with BoNT/A1 (Hall hyper) [15] amounted to 3.9 fold.

B13: B6.1 Fab (Fab, V domains shown)
VH: QVQLVQSGAEVKKPGESLVISCKASGDKDTFTSFWIAWVRQMPGKGLEWMGIIYAGDSDTRYSPSFQGHVNISVDRSTNTAYLQWSSLKASDTAMYYCARHDSRYKYFYFGMDVWGQGTTVTVSS
VL: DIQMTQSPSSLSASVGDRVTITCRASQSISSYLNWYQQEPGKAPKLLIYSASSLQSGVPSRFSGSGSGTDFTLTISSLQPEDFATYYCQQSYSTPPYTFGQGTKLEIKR
For B13, the Kd in the test with BoNT/B1 [6] and in the test with BoNT/B1 [16] was 0.286 nM throughout. Moreover, the “KD wild type/KD matured” value with BoNT/B1 [17] came to 9 fold.

B14: B6.1 IgG (antibody, V domains shown)
VH: B13 VH
VL: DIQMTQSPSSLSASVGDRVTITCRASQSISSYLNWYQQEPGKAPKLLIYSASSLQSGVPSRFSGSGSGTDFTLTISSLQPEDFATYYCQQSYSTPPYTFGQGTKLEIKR
As for B14, the “fold increase in affinity, IgG against yeast displayed Fab” value in the test with BoNT/B1 [8] worked out at 42 fold. Also, the Kd in the test with BoNT/B1 [9] is 0.00682 nM.

As usually defined, the Kd is the concentration at which binding is half-saturated.
